Positions count from the first letter of the chain named. Names and notes keep the numbering of the source.
B1: wild-type (WT) RDS (retinal degeneration slow; Peripherin/rds), recombinant in COS-1 cells (natural protein, murine, UniProt P15499 1-346, looked up)
chain: MALLKVKFDQKKRVKLAQGLWLMNWLSVLAGIVLFSLGLFLKIELRKRSEVMNNSESHFVPNSLIGVGVLSCVFNSLAGKICYDALDPAKYAKWKPWLKPYLAVCIFFNVILFLVALCCFLLRGSLESTLAYGLKNGMKYYRDTDTPGRCFMKKTIDMLQIEFKCCGNNGFRDWFEIQWISNRYLDFSSKEVKDRIKSNVDGRYLVDGVPFSCCNPSSPRPCIQYQLTNNSAHYSYDHQTEELNLWLRGCRAALLNYYSSLMNSMGVVTLLVWLFEVSITAGLRYLHTALESVSNPEDPECESEGWLLEKSVPETWKAFLESFKKLGKSNQVEAEGADAGPAPEAG
B2: N244H RDS, recombinant in COS-1 cells (natural protein, murine, UniProt P15499 1-346, looked up)
chain: B1 chain with N244H
B3: N244K RDS, recombinant in COS-1 cells (natural protein, murine, UniProt P15499 1-346, looked up)
chain: B1 chain with N244K

How the values were obtained:
[1] = molecular target: the molecule itself; assay: non-reducing SDS-PAGE/Western blot
[2] = molecular target: the molecule itself; assay: velocity sedimentation on a sucrose gradient

| Protein | stoichiometry N [1] | stoichiometry N [2] |
| --- | --- | --- |
| B1 | 2 | 4 |
| B2 | 2 | 4 |
| B3 | – | 4 |

— article PMC2937569 (Biochemistry, 2010)
